The Human Domainome abundance scans (Beltran et al. 2025)
± gives the uncertainty stated by the source.

B1: Transcription elongation regulator 1-like protein, residues 448 to 504; numbered along this chain, Q5VWI1 (parent)
chain: LPLEERVTHFRDMLLERGVSAFSTWEKELHKIVFDPRYLLLNSEERKQIFEQFVKTR

Variants of: B1
Experiment: abundance fitness (aPCA) (normalised: wild type 0, dead -1); higher = more abundant; growth selection in yeast, the domain comes from the species named
Settings: Homo sapiens
For LPLEERVTHFRDMLLERGVSAFSTWEKELHKIVFDPRYLLLNSEMRKQIFEQFVKTR, the abundance fitness was -0.107 ± 0.13. In the case of LPLEERVTHFRDMLLERGVSAFSTWEKELHKIVFDPRYLLLNSEERKQIFDQFVKTR, the abundance fitness is reported as -0.04 ± 0.097. LPLEERVTHFRDMLLERGVSAFSTWEKELHKIVFDPRYLLLNSEERKQIFIQFVKTR gave an abundance fitness of -0.632 ± 0.092. Variant LPLEERVTHFRDMLLERGVSAFSTWEKEVHKIVFDPRYLLLNSEERKQIFEQFVKTR has an abundance fitness of -0.213 ± 0.12. Variant LPLEERVTHFRDMLLERGVSAFSTWEKELHKIVFDPRYLLLNSEERKQIFEQFVWTR has an abundance fitness of -0.543 ± 0.2. In the case of LPLEERVTHFRDMLLERGVSAFSTAEKELHKIVFDPRYLLLNSEERKQIFEQFVKTR, the abundance fitness is reported as -0.589 ± 0.09. In the case of LPLEERVTHFRDMLLERGVSAFSTQEKELHKIVFDPRYLLLNSEERKQIFEQFVKTR, the abundance fitness is reported as -0.751 ± 0.47. LPLEERVTHFRDMLLERGVSAFSTWEKELHKIVFDPGYLLLNSEERKQIFEQFVKTR gave an abundance fitness of -0.692 ± 0.1. LPLEERVTHFRDMLLERGVSAFSTWEKELHKIVFDPEYLLLNSEERKQIFEQFVKTR gave an abundance fitness of -0.917 ± 0.4. Work on LPLEERVTHFRNMLLERGVSAFSTWEKELHKIVFDPRYLLLNSEERKQIFEQFVKTR yielded an abundance fitness of -0.26 ± 0.26. In the case of LPLEERVTHFREMLLERGVSAFSTWEKELHKIVFDPRYLLLNSEERKQIFEQFVKTR, the abundance fitness is reported as 0.274 ± 0.19. Variant LPLEERVTHFRDMLLERGVSAFSTWEKELHKIVFDPRYLLLNSLERKQIFEQFVKTR has an abundance fitness of -0.211 ± 0.2. In the case of LPLEERVTHFRDMLLERGVSAFSTWEKELHKIVFDPRYLLLNSKERKQIFEQFVKTR, the abundance fitness is reported as 0.094 ± 0.28. With LPLEERVTHFRDMLLERGVSAFSTWEKELHKIVFDPRYLLLNSEERKQIFEPFVKTR the abundance fitness was -0.618 ± 0.11. Work on LPLEERVTHFRDMLLERGVSAFSTWEKELHKIVFDPRYLLLNSEERKQIFELFVKTR yielded an abundance fitness of -0.435 ± 0.087. Work on LPLEERVTHFRDMLLERGVSAFSTWEKELHKIVFDPRYLLLNSEERKQIFEMFVKTR yielded an abundance fitness of -0.428 ± 0.11. LPLEERVTHFRDMLLERGVSAFSTWEKELHKIVFDPRYLLLNSEERKQIFECFVKTR showed an abundance fitness of -0.402 ± 0.099. LPREERVTHFRDMLLERGVSAFSTWEKELHKIVFDPRYLLLNSEERKQIFEQFVKTR showed an abundance fitness of 0.304 ± 0.07. Work on LPFEERVTHFRDMLLERGVSAFSTWEKELHKIVFDPRYLLLNSEERKQIFEQFVKTR yielded an abundance fitness of 0.04 ± 0.41. LPMEERVTHFRDMLLERGVSAFSTWEKELHKIVFDPRYLLLNSEERKQIFEQFVKTR showed an abundance fitness of 0.309 ± 0.18. With LPLEERVTHFRDMLLERGVSAVSTWEKELHKIVFDPRYLLLNSEERKQIFEQFVKTR the abundance fitness was -0.439 ± 0.12. Variant LPLEERVTHFRDMLLERGVSARSTWEKELHKIVFDPRYLLLNSEERKQIFEQFVKTR has an abundance fitness of -0.155 ± 0.1. LPLEERVTHFRDMLLERGVSAFSTWEKELHKIVFDPRYLLLASEERKQIFEQFVKTR gave an abundance fitness of -0.571 ± 0.33. Variant LPLEERVTHFRDMLLERGVSAFSTWEKELHKIVFDPRYLLLLSEERKQIFEQFVKTR has an abundance fitness of -0.529 ± 0.23. For LPLEERVTHFRDMLLERGVSAFSTWEKELHKIVFDPRYLLLTSEERKQIFEQFVKTR, the abundance fitness was -0.325 ± 0.26. For LPLEERVTHFRDMLLERGVSAFSTWEKELHKIVFDPRYLLLCSEERKQIFEQFVKTR, the abundance fitness was -0.437 ± 0.2. LPLEERVTHFRDMKLERGVSAFSTWEKELHKIVFDPRYLLLNSEERKQIFEQFVKTR showed an abundance fitness of -0.905 ± 0.34. In the case of LPLEERVTHFRDMLLERGVSAFSTWEKELHKIVFDPRPLLLNSEERKQIFEQFVKTR, the abundance fitness is reported as -0.653 ± 0.4. Work on LPLEERVTHFRDMLLERGVSAFSTWEKELHKIVFDPRQLLLNSEERKQIFEQFVKTR yielded an abundance fitness of -0.668 ± 0.15. In the case of LPLEERVTHFRDMLLERGVSAFSTWEKELHKIVFDPRFLLLNSEERKQIFEQFVKTR, the abundance fitness is reported as -0.129 ± 0.31. LPLEERVTHFRDMLLERGVSAFSTWEKELHKIVFDPRRLLLNSEERKQIFEQFVKTR gave an abundance fitness of -0.669 ± 0.19. In the case of LPLEERVTHFFDMLLERGVSAFSTWEKELHKIVFDPRYLLLNSEERKQIFEQFVKTR, the abundance fitness is reported as -0.248 ± 0.4. LPLEERVTHFWDMLLERGVSAFSTWEKELHKIVFDPRYLLLNSEERKQIFEQFVKTR gave an abundance fitness of -0.365 ± 0.32. LPLEERVTHFEDMLLERGVSAFSTWEKELHKIVFDPRYLLLNSEERKQIFEQFVKTR showed an abundance fitness of -0.437 ± 0.23. LPLEERVTHFDDMLLERGVSAFSTWEKELHKIVFDPRYLLLNSEERKQIFEQFVKTR gave an abundance fitness of -0.909 ± 0.16. For LPLEERVTHFRDMLLERGVSPFSTWEKELHKIVFDPRYLLLNSEERKQIFEQFVKTR, the abundance fitness was -0.114 ± 0.1. Variant LPLEERVTHFRDMLHERGVSAFSTWEKELHKIVFDPRYLLLNSEERKQIFEQFVKTR has an abundance fitness of -0.352 ± 0.37. With LPLEERVTHFRDMLLVRGVSAFSTWEKELHKIVFDPRYLLLNSEERKQIFEQFVKTR the abundance fitness was -0.666 ± 0.24. In the case of LPLEERVTHFRDMLLERGVSAFSTWEKELHKIVVDPRYLLLNSEERKQIFEQFVKTR, the abundance fitness is reported as -0.085 ± 0.16. For LPLEERVTHFRDMLLERGVSAFSTWAKELHKIVFDPRYLLLNSEERKQIFEQFVKTR, the abundance fitness was -0.636 ± 0.28. Work on LPLEERVTHFRDMLLERGVSAFSRWEKELHKIVFDPRYLLLNSEERKQIFEQFVKTR yielded an abundance fitness of -0.701 ± 0.21. With LPLEERVTHFRDMLLERGVSAFSGWEKELHKIVFDPRYLLLNSEERKQIFEQFVKTR the abundance fitness was -0.662 ± 0.13. In the case of LPLEERVTHFRDMLLERGVSAFSSWEKELHKIVFDPRYLLLNSEERKQIFEQFVKTR, the abundance fitness is reported as -0.237 ± 0.082. In the case of LPLEERVHHFRDMLLERGVSAFSTWEKELHKIVFDPRYLLLNSEERKQIFEQFVKTR, the abundance fitness is reported as -0.39 ± 0.14. LPLEERVTHTRDMLLERGVSAFSTWEKELHKIVFDPRYLLLNSEERKQIFEQFVKTR showed an abundance fitness of -0.679 ± 0.4. LPLEERVTHMRDMLLERGVSAFSTWEKELHKIVFDPRYLLLNSEERKQIFEQFVKTR showed an abundance fitness of -0.782 ± 0.2. Variant LPLEERVTHLRDMLLERGVSAFSTWEKELHKIVFDPRYLLLNSEERKQIFEQFVKTR has an abundance fitness of -0.682 ± 0.21.
